Target: GLP-1 receptor on CHO 6CRE GLP1R cells
Experiment: cell-based or functional assay

B1: Ex4-FGFR1cA1L (antibody, mouse IgG2a)
heavy: QVQLVQSGAEVKKPGSSVKVSCKASGQTFTGYYMHWVRQAPGQGLEWMGRIIPILGIAQKFQGRVTITADKSTSTAYMELSSLRSEDTAVYYCARGGDLGGMDVWGQGTLVTVSSAKTTAPSVYPLAPVCGDTTGSSVTLGCLVKGYFPEPVTLTWNSGSLSSGVHTFPAVLQSDLYTLSSSVTVTSSTWPSQSITCNVAHPASSTKVDKKIEPRGPTIKPCPPCKCPAPNLAGAPSVFIFPPKIKDVLMISLSPIVTCVVVDVSEDDPDVQISWFVNNVEVHTAQTQTHREDYNSTLRVVSALPIQHQDWMSGKEFKCKVNNKDLPAPIERTISKPKGSVRAPQVYVLPPPEEEMTKKQVTLTCMVTDFMPEDIYVEWTNNGKTELNYKNTEPVLDSDGSYFMYSKLRVEKKNWVERNSYSCSVVHEGLHNHHTTKSFSRTPGK
light: not shown
- Average EC50 (pM), luciferase reporter in CHO 6CRE GLP1R cells: 109 pM

B2: Ex4-FGFR1cA1H (antibody, mouse IgG2a)
heavy: not shown
light: EIVLTQSPLSLPVTPGEPASISCRSSQSLRHSNGYNYLDWYLQKPGQSPQLLIYLASNRASGVPDRFSGSGSGTDFTLKISRVEAEDVGVYYCMQALQIPPTFGPGTKVDIKRTVAAPTVSIFPPSSEQLTSGGASVVCFLNNFYPKDINVKWKIDGSERQNGVLNSWTDQDSKDSTYSMSSTLTLTKDEYERHNSYTCEATHKTSTSPIVKSFNRNEC
- Average EC50 (pM), luciferase reporter in CHO 6CRE GLP1R cells: 117 pM

B3: Ex4-ScrL (antibody, mouse IgG2a)
heavy: QVQLVQSGSELKKPGASVKVSCKASGYTFTNYGMNWVRQAPGQGLEWMGWINTRNGKSTYVDDFKGRFVFSLDTSVSTAYLQISSLKADDTAVYYCAREGNMDGYFPFTYWGQGTLVTVSSAKTTAPSVYPLAPVCGDTTGSSVTLGCLVKGYFPEPVTLTWNSGSLSSGVHTFPAVLQSDLYTLSSSVTVTSSTWPSQSITCNVAHPASSTKVDKKIEPRGPTIKPCPPCKCPAPNLAGAPSVFIFPPKIKDVLMISLSPIVTCVVVDVSEDDPDVQISWFVNNVEVHTAQTQTHREDYNSTLRVVSALPIQHQDWMSGKEFKCKVNNKDLPAPIERTISKPKGSVRAPQVYVLPPPEEEMTKKQVTLTCMVTDFMPEDIYVEWTNNGKTELNYKNTEPVLDSDGSYFMYSKLRVEKKNWVERNSYSCSVVHEGLHNHHTTKSFSRTPGK
light: not shown
- Average EC50 (pM), luciferase reporter in CHO 6CRE GLP1R cells: 117 pM

B4: GLP-1ScrL (antibody, mouse IgG2a)
heavy: QVQLVQSGSELKKPGASVKVSCKASGYTFTNYGMNWVRQAPGQGLEWMGWINTRNGKSTYVDDFKGRFVFSLDTSVSTAYLQISSLKADDTAVYYCAREGNMDGYFPFTYWGQGTLVTVSSAKTTAPSVYPLAPVCGDTTGSSVTLGCLVKGYFPEPVTLTWNSGSLSSGVHTFPAVLQSDLYTLSSSVTVTSSTWPSQSITCNVAHPASSTKVDKKIEPRGPTIKPCPPCKCPAPNLAGAPSVFIFPPKIKDVLMISLSPIVTCVVVDVSEDDPDVQISWFVNNVEVHTAQTQTHREDYNSTLRVVSALPIQHQDWMSGKEFKCKVNNKDLPAPIERTISKPKGSVRAPQVYVLPPPEEEMTKKQVTLTCMVTDFMPEDIYVEWTNNGKTELNYKNTEPVLDSDGSYFMYSKLRVEKKNWVERNSYSCSVVHEGLHNHHTTKSFSRTPGK
light: HGEGTFTSDVSSYLEGQAAKEFIAWLVKGRGSGGGGSGGGGSGDIVMTQSPSSLSASVGDRVTITCKASQNVGTNVAWYQQKPGKAPKALIYSASYRYSGVPDRFSGSGSGTDFTLTISSLQPEDFATYYCQQYNSYPLTFGGGTKVEIKRTVAAPTVSIFPPSSEQLTSGGASVVCFLNNFYPKDINVKWKIDGSERQNGVLNSWTDQDSKDSTYSMSSTLTLTKDEYERHNSYTCEATHKTSTSPIVKSFNRNEC
- Average EC50 (pM), luciferase reporter in CHO 6CRE GLP1R cells: 889 pM

B5: GLP1ScrH/L (antibody, mouse IgG2a)
heavy: HGEGTFTSDVSSYLEGQAAKEFIAWLVKGRGSGGGGSGGGGSGQVQLVQSGSELKKPGASVKVSCKASGYTFTNYGMNWVRQAPGQGLEWMGWINTRNGKSTYVDDFKGRFVFSLDTSVSTAYLQISSLKADDTAVYYCAREGNMDGYFPFTYWGQGTLVTVSSAKTTAPSVYPLAPVCGDTTGSSVTLGCLVKGYFPEPVTLTWNSGSLSSGVHTFPAVLQSDLYTLSSSVTVTSSTWPSQSITCNVAHPASSTKVDKKIEPRGPTIKPCPPCKCPAPNLAGAPSVFIFPPKIKDVLMISLSPIVTCVVVDVSEDDPDVQISWFVNNVEVHTAQTQTHREDYNSTLRVVSALPIQHQDWMSGKEFKCKVNNKDLPAPIERTISKPKGSVRAPQVYVLPPPEEEMTKKQVTLTCMVTDFMPEDIYVEWTNNGKTELNYKNTEPVLDSDGSYFMYSKLRVEKKNWVERNSYSCSVVHEGLHNHHTTKSFSRTPGK
light: HGEGTFTSDVSSYLEGQAAKEFIAWLVKGRGSGGGGSGGGGSGDIVMTQSPSSLSASVGDRVTITCKASQNVGTNVAWYQQKPGKAPKALIYSASYRYSGVPDRFSGSGSGTDFTLTISSLQPEDFATYYCQQYNSYPLTFGGGTKVEIKRTVAAPTVSIFPPSSEQLTSGGASVVCFLNNFYPKDINVKWKIDGSERQNGVLNSWTDQDSKDSTYSMSSTLTLTKDEYERHNSYTCEATHKTSTSPIVKSFNRNEC
- Average EC50 (pM), luciferase reporter in CHO 6CRE GLP1R cells: 475 pM

B6: Ex4-ScrH (antibody, mouse IgG2a, kappa)
heavy: not shown
light: DIVMTQSPSSLSASVGDRVTITCKASQNVGTNVAWYQQKPGKAPKALIYSASYRYSGVPDRFSGSGSGTDFTLTISSLQPEDFATYYCQQYNSYPLTFGGGTKVEIKRTDAAPTVSIFPPSSEQLTSGGASVVCFLNNFYPKDINVKWKIDGSERQNGVLNSWTDQDSKDSTYSMSSTLTLTKDEYERHNSYTCEATHKTSTSPIVKSFNRNEC
- Average EC50 (pM), luciferase reporter in CHO 6CRE GLP1R cells: 153 pM

B7: GLP-1ScrH (antibody, mouse IgG2a, kappa)
heavy: HGEGTFTSDVSSYLEGQAAKEFIAWLVKGRGSGGGGSGGGGSGQVQLVQSGSELKKPGASVKVSCKASGYTFTNYGMNWVRQAPGQGLEWMGWINTRNGKSTYVDDFKGRFVFSLDTSVSTAYLQISSLKADDTAVYYCAREGNMDGYFPFTYWGQGTLVTVSSAKTTAPSVYPLAPVCGDTTGSSVTLGCLVKGYFPEPVTLTWNSGSLSSGVHTFPAVLQSDLYTLSSSVTVTSSTWPSQSITCNVAHPASSTKVDKKIEPRGPTIKPCPPCKCPAPNLAGAPSVFIFPPKIKDVLMISLSPIVTCVVVDVSEDDPDVQISWFVNNVEVHTAQTQTHREDYNSTLRVVSALPIQHQDWMSGKEFKCKVNNKDLPAPIERTISKPKGSVRAPQVYVLPPPEEEMTKKQVTLTCMVTDFMPEDIYVEWTNNGKTELNYKNTEPVLDSDGSYFMYSKLRVEKKNWVERNSYSCSVVHEGLHNHHTTKSFSRTPGK
light: DIVMTQSPSSLSASVGDRVTITCKASQNVGTNVAWYQQKPGKAPKALIYSASYRYSGVPDRFSGSGSGTDFTLTISSLQPEDFATYYCQQYNSYPLTFGGGTKVEIKRTDAAPTVSIFPPSSEQLTSGGASVVCFLNNFYPKDINVKWKIDGSERQNGVLNSWTDQDSKDSTYSMSSTLTLTKDEYERHNSYTCEATHKTSTSPIVKSFNRNEC
- Average EC50 (pM), luciferase reporter in CHO 6CRE GLP1R cells: 485 pM

— US20120058116A1 (published 2012)
